“And” between values parts separate entries of the source, which are not always exact repeats. Equal entries are not always repeated.
System: not listed separately
Test: nanoDSF melting, homodimer dissociation, 4.0 µM

Substance | Tm^1 (Dimer Dissociation) [° C.] | ΔTm^1 (Var-WT) [° C.]
DENV3 sE WT | < 15 | 0

Biological target: DENV2 sE WT (Dengue virus 2 strain 16681) (UniProt P29990)
Test: nanoDSF Van't Hoff, homodimer, 37 C
Set-up: TΔS°bind: unit not given here

Substance | Kd [µM] | TΔS°bind | ΔG°bind [kcal/mol] | ΔH°bind [kcal/mol]
DENV2 sE WT (from UniProt P29990 281-677) | 13 | -67.1 | -6.9 | -74.1

System: not given
Test: not given

Substance | Tm^1 (Dimer Dissociation)
DENV2 sE WT | 35.9 ° C. and 34.2 ° C. and 32.1 ° C.

Biological target: DENV2 sE PM4, displayed on EXPI293F cells (Dengue virus 2 strain 16681)
Test: flow cytometry, EXPI293F surface display, RT (~23 C)

Substance | Fluorescence Ratio (Fr, Var/WT)
EDE1 C8 (antibody) | 3.2

Biological target: DENV2 sE Mnmer2, displayed on EXPI293F cells (Dengue virus 2 strain 16681)
Test: as above

Substance | Fluorescence Ratio (Fr, Var/WT)
EDE1 C8 (antibody) | 2.7

Biological target: DENV2 sE Cm2, displayed on EXPI293F cells (Dengue virus 2 strain 16681)
Test: as above

Substance | Fluorescence Ratio (Fr, Var/WT)
EDE1 C8 (antibody) | 1.7

Biological target: DENV2 sE IntFc2, displayed on EXPI293F cells (Dengue virus 2 strain 16681)
Test: as above

Substance | Fluorescence Ratio (Fr, Var/WT)
EDE1 C8 (antibody) | 1.3

Biological target: DENV2 sE PM2, displayed on EXPI293F cells (Dengue virus 2 strain 16681)
Test: as above

Substance | Fluorescence Ratio (Fr, Var/WT)
EDE1 C8 (antibody) | 2.4

Biological target: DENV2 sE WT, displayed on EXPI293F cells (Dengue virus 2 strain 16681)
Test: as above

Substance | Fluorescence Ratio (Fr, Var/WT)
EDE1 C8 (antibody) | 1

Biological target: DENV2 sE Cm1, displayed on EXPI293F cells (Dengue virus 2 strain 16681)
Test: as above

Substance | Fluorescence Ratio (Fr, Var/WT)
EDE1 C8 (antibody) | 0.9

Biological target: DENV2 sE IntFc8, displayed on EXPI293F cells (Dengue virus 2 strain 16681)
Test: as above

Substance | Fluorescence Ratio (Fr, Var/WT)
EDE1 C8 (antibody) | 3.3

Biological target: DENV2 sE HCat3, displayed on EXPI293F cells (Dengue virus 2 strain 16681)
Test: as above

Substance | Fluorescence Ratio (Fr, Var/WT)
EDE1 C8 (antibody) | 1.9

Biological target: DENV2 sE SHP2, displayed on EXPI293F cells (Dengue virus 2 strain 16681)
Test: as above

Substance | Fluorescence Ratio (Fr, Var/WT)
EDE1 C8 (antibody) | 2.3

Biological target: DENV2 sE UndPk6, displayed on EXPI293F cells (Dengue virus 2 strain 16681)
Test: as above

Substance | Fluorescence Ratio (Fr, Var/WT)
EDE1 C8 (antibody) | 2.3

Biological target: DENV2 sE Mnmer1, displayed on EXPI293F cells (Dengue virus 2 strain 16681)
Test: as above

Substance | Fluorescence Ratio (Fr, Var/WT)
EDE1 C8 (antibody) | 0.7

Biological target: DENV2 sE IntFc6, displayed on EXPI293F cells (Dengue virus 2 strain 16681)
Test: as above

Substance | Fluorescence Ratio (Fr, Var/WT)
EDE1 C8 (antibody) | 1.3

Biological target: DENV2 sE SHP1, displayed on EXPI293F cells (Dengue virus 2 strain 16681)
Test: as above

Substance | Fluorescence Ratio (Fr, Var/WT)
EDE1 C8 (antibody) | 2.9

Source: patent publication US20220289796A1
